Experimental data published in patent US20140175018A1.
One block for each binder: values may come before it. Bridge positions count the residues as written; N and C are the ends. Side chains are listed from the residue outwards. * marks the point of attachment. Biotin = O=C1N[C@H]2[C@H](CS[C@H]2CCCCC(=O)*)N1; PEG = not defined here

How the values were obtained:
Experiment in all cases: cell-based or functional assay
[1] = target: T1, chemokine (C-C motif) receptor 10 (CCR10) (human) (UniProt P46092)
T1 sequence (looked up): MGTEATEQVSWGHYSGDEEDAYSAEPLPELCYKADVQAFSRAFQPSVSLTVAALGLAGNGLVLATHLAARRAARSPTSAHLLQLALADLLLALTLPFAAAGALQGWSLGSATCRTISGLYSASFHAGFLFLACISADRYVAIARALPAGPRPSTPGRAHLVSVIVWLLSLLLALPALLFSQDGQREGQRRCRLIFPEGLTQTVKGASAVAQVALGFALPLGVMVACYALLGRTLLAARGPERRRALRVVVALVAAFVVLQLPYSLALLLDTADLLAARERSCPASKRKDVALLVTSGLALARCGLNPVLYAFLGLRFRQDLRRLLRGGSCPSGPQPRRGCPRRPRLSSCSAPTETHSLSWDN

[2] = target: chemokine (C-X-C motif) receptor 3 (CXCR3) (human) (UniProt P49682)
[3] = target: T2, chemokine (C-C motif) receptor 4 (CCR4) (human) (UniProt P51679)
T2 sequence (looked up): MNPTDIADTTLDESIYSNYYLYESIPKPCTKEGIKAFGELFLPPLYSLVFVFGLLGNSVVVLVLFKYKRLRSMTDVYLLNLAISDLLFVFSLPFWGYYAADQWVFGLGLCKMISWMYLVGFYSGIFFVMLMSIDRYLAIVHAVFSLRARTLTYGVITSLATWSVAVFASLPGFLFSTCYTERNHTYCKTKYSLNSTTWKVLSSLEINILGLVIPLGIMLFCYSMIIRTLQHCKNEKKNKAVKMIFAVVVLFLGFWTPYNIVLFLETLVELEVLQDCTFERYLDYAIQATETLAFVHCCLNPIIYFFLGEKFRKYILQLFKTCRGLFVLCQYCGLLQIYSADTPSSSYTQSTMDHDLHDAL

Chain of chemokine (C-X-C motif) receptor 3 (CXCR3) (human) (P49682 whole entry): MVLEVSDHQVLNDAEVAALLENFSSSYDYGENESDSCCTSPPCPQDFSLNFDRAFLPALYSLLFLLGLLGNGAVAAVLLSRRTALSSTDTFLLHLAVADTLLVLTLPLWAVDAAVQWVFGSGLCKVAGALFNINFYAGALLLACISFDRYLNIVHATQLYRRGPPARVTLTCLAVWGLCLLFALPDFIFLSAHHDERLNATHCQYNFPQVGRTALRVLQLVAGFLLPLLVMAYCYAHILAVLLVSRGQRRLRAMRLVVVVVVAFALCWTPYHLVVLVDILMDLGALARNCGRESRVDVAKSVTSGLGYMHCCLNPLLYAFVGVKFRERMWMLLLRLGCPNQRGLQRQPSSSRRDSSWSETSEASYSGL

B1: recombinant native CTAC (ligand, UniProt Q9Y4X3 25-112, looked up)
chain: FLLPPSTACCTQLYRKPLSDKLLRKVIQVELQEADGDCHLQAFVLHLAQRSICIHPQNPSLSQWFEHQERKLHGTLPKLNFGMLRKMG
- EC50 (agonist activity, Aequorin assay) [1]: 33.5 nM

B4: biotinCTAC (CCL27): CTAC derivatised at Lys(87) with PEG-Biotin (ligand)
chain: FLLPPSTACCTQLYRKPLSDKLLRKVIQVELQEADGDCHLQAFVLHLAQRSICIHPQNPSLSQWFEHQERKLHGTLPKLNFGMLRKK([PEG-Biotin])G-OH
modifications: disulfide 10-53, 9-38; reading uncertain
- EC50 (agonist activity, Aequorin assay) [1]: 49.4 nM

B5: biotinITAC (CXCL11): ITAC derivatised with Biotin at an additional C-terminal Lysine after a PEG spacer (ligand)
chain: FPMFKRGRCLCIGPGVKAVKVADIEKASIMYPSNNCDKIEVIITLKENKGQRCLNPKSKQARLIIKKVERKNFX
modifications: X74 = PEG-K(Biotin)
- EC50 (agonist activity, Aequorin assay) [2]: 15.7 nM

Continued, values first:

- EC50 (agonist activity, Aequorin assay) [2]: 0.7 nM
B2: recombinant native ITAC (ligand, UniProt O14625 22-94, looked up)
chain: FPMFKRGRCLCIGPGVKAVKVADIEKASIMYPSNNCDKIEVIITLKENKGQRCLNPKSKQARLIIKKVERKNF

- EC50 (agonist activity, Aequorin assay) [3]: 3.6 nM
B3: recombinant native MDC (ligand, UniProt O00626 25-93, looked up)
chain: GPYGANMEDSVCCRDYVRYRLPLRVVKHFYWTSDSCPRPGVVLLTFRDKEICADPRVPWVKMILNKLSQ
